Measured values as given in PMC9482650, “Quantitative fragmentomics allow affinity mapping of interactomes” (Nature Communications, 2022).

T1: ARHGEF11, O15085
T1 sequence (O15085 42-136, limits assumed, looked up): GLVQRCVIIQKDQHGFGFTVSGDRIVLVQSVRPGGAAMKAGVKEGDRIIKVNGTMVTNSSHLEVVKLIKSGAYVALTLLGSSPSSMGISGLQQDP

T2: DLG3_2, Q92796
T2 sequence (Q92796 221-321, limits assumed, looked up): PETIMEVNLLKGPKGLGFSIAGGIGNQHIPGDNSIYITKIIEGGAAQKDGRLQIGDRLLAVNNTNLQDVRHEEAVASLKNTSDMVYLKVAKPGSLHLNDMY

T3: FRMPD1, Q5SYB0
T3 sequence (Q5SYB0 52-145, limits assumed, looked up): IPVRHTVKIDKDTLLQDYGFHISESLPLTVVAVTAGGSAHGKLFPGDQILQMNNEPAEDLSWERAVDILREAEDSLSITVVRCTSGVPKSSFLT

T4: LIN7A, O14910
T4 sequence (O14910 103-200, limits assumed, looked up): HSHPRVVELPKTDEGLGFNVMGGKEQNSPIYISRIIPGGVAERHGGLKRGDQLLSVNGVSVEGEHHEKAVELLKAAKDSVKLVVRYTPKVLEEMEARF

T5: MPDZ_12, O75970
T5 sequence (O75970 1857-1958, limits assumed, looked up): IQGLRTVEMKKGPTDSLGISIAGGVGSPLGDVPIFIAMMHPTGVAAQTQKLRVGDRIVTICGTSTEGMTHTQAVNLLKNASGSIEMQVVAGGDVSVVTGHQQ

T6: PCLO, Q9Y6V0
T6 sequence (Q9Y6V0 4491-4600, limits assumed, looked up): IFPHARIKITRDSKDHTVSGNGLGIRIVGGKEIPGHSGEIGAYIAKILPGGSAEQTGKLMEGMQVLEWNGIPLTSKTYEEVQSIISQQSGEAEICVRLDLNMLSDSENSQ

T7: PTPN13_1, Q12923
T7 sequence (Q12923 1088-1188, limits assumed, looked up): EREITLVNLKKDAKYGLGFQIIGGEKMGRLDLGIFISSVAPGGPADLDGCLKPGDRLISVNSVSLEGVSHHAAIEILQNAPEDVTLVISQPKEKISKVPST

T8: SHANK1, Q9Y566
T8 sequence (Q9Y566 658-767, limits assumed, looked up): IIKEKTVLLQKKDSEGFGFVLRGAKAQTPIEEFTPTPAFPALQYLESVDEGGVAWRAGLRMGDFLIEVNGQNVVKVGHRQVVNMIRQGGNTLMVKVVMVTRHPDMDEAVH

T9: TX1BP3, O14907
T9 sequence (O14907 10-122, limits assumed, looked up): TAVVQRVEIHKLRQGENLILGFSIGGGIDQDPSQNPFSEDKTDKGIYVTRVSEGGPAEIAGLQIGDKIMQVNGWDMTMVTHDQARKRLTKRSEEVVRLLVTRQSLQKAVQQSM

B1: ASNSD1, Q9NWL6 (peptide)
chain: NLSIEKETKL
B2: TRPC5, Q9UL62 (peptide)
chain: GQEEQVTTRL

The binders below were run against T1, ARHGEF11, O15085 (assay: holdup assay). Details: plain residues with an end cap or a label only (N-terminal biotin on a linker: ado-ado).
Set-up: key: below the threshold = too weak to quantify, mostly under pKd 3.1 to 4
With B1 the pKd was “below the threshold”. With B2 the pKd was 4.37.

Each binder was assayed against DLG1_1, Q12959 (assay: holdup assay). Details: plain residues with an end cap or a label only (N-terminal biotin on a linker: ado-ado).
Set-up: key: below the threshold = too weak to quantify, mostly under pKd 3.1 to 4
In the case of B1, the pKd is reported as “below the threshold”. For B2, the pKd was “below the threshold”.

What follows are binders tested against DLG2_3, Q15700 (assay: holdup assay). Details: plain residues with an end cap or a label only (N-terminal biotin on a linker: ado-ado).
Set-up: key: below the threshold = too weak to quantify, mostly under pKd 3.1 to 4
Work on B1 yielded a pKd of 3.77. With B2 the pKd was “below the threshold”.

The binders below were run against T2, DLG3_2, Q92796 (assay: holdup assay). Details: plain residues with an end cap or a label only (N-terminal biotin on a linker: ado-ado).
Set-up: key: below the threshold = too weak to quantify, mostly under pKd 3.1 to 4
For B1, the pKd was 4.24. Work on B2 yielded a pKd of 3.97.

The binders below were run against DLG5_1, Q8TDM6 (assay: holdup assay). Details: plain residues with an end cap or a label only (N-terminal biotin on a linker: ado-ado).
Sequence of DLG5_1, Q8TDM6 (Q8TDM6 617-713): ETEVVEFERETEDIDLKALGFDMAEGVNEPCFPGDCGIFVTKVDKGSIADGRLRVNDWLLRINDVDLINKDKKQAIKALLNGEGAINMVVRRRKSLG
Set-up: key: below the threshold = too weak to quantify, mostly under pKd 3.1 to 4
In the case of B1, the pKd is reported as “below the threshold”. For B2, the pKd was “below the threshold”.

What follows are binders tested against T3, FRMPD1, Q5SYB0 (assay: holdup assay). Details: plain residues with an end cap or a label only (N-terminal biotin on a linker: ado-ado).
Set-up: key: below the threshold = too weak to quantify, mostly under pKd 3.1 to 4
In the case of B1, the pKd is reported as “below the threshold”. With B2 the pKd was “below the threshold”.

What follows are binders tested against GIPC2, Q8TF65 (assay: holdup assay). Details: plain residues with an end cap or a label only (N-terminal biotin on a linker: ado-ado).
Sequence of GIPC2, Q8TF65 (Q8TF65 112-203): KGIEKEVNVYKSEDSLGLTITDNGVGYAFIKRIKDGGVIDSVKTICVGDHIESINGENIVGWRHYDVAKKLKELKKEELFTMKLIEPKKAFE
Set-up: key: below the threshold = too weak to quantify, mostly under pKd 3.1 to 4
For B1, the pKd was “below the threshold”. For B2, the pKd was “below the threshold”.

These binders were tested against GORASP2, Q9H8Y8 (assay: holdup assay). Details: plain residues with an end cap or a label only (N-terminal biotin on a linker: ado-ado).
Set-up: key: below the threshold = too weak to quantify, mostly under pKd 3.1 to 4
With B1 the pKd was “below the threshold”. For B2, the pKd was “below the threshold”.

Each binder was assayed against GRASP, Q7Z6J2 (assay: holdup assay). Details: plain residues with an end cap or a label only (N-terminal biotin on a linker: ado-ado).
Sequence of GRASP, Q7Z6J2 (Q7Z6J2 96-193): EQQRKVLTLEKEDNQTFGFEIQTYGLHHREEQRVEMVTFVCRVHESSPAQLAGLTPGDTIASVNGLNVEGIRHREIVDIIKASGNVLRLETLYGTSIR
Set-up: key: below the threshold = too weak to quantify, mostly under pKd 3.1 to 4
B1 was tested, and the pKd was “below the threshold”. Work on B2 yielded a pKd of 4.63.

These binders were tested against GRID2IP_1, A4D2P6 (assay: holdup assay). Details: plain residues with an end cap or a label only (N-terminal biotin on a linker: ado-ado).
Sequence of GRID2IP_1, A4D2P6 (A4D2P6 1-87): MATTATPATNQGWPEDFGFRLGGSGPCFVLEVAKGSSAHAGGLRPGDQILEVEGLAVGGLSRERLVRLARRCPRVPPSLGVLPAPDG
Set-up: key: below the threshold = too weak to quantify, mostly under pKd 3.1 to 4
With B1 the pKd was “below the threshold”. For B2, the pKd was “below the threshold”.

These binders were tested against Inadl_1, Q8NI35 (assay: holdup assay). Details: plain residues with an end cap or a label only (N-terminal biotin on a linker: ado-ado).
Sequence of Inadl_1, Q8NI35 (Q8NI35 113-229): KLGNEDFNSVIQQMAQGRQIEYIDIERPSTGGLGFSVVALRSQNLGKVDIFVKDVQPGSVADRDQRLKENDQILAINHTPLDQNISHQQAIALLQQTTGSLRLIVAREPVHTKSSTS
Set-up: key: below the threshold = too weak to quantify, mostly under pKd 3.1 to 4
In the case of B1, the pKd is reported as “below the threshold”. With B2 the pKd was “below the threshold”.

These binders were tested against Inadl_10, Q8NI35 (assay: holdup assay). Details: plain residues with an end cap or a label only (N-terminal biotin on a linker: ado-ado).
Sequence of Inadl_10, Q8NI35 (Q8NI35 1673-1763): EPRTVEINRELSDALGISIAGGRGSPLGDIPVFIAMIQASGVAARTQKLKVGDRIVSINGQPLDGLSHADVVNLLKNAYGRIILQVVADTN
Set-up: key: below the threshold = too weak to quantify, mostly under pKd 3.1 to 4
For B1, the pKd was “below the threshold”. In the case of B2, the pKd is reported as “below the threshold”.

The binders below were run against Inadl_5, Q8NI35 (assay: holdup assay). Details: plain residues with an end cap or a label only (N-terminal biotin on a linker: ado-ado).
Sequence of Inadl_5, Q8NI35 (Q8NI35 673-780): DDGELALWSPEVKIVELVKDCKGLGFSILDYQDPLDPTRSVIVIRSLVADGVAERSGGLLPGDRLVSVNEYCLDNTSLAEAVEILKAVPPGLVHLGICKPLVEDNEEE
Set-up: key: below the threshold = too weak to quantify, mostly under pKd 3.1 to 4
In the case of B1, the pKd is reported as “below the threshold”. With B2 the pKd was “below the threshold”.

What follows are binders tested against Inadl_9, Q8NI35 (assay: holdup assay). Details: plain residues with an end cap or a label only (N-terminal biotin on a linker: ado-ado).
Sequence of Inadl_9, Q8NI35 (Q8NI35 1530-1615): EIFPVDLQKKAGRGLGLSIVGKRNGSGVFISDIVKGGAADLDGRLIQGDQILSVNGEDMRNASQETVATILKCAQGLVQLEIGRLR
Set-up: key: below the threshold = too weak to quantify, mostly under pKd 3.1 to 4
For B1, the pKd was “below the threshold”. For B2, the pKd was “below the threshold”.

Each binder was assayed against T4, LIN7A, O14910 (assay: holdup assay). Details: plain residues with an end cap or a label only (N-terminal biotin on a linker: ado-ado).
Set-up: key: below the threshold = too weak to quantify, mostly under pKd 3.1 to 4
B1 was tested, and the pKd was “below the threshold”. For B2, the pKd was “below the threshold”.

What follows are binders tested against LNX1_1, Q8TBB1 (assay: holdup assay). Details: plain residues with an end cap or a label only (N-terminal biotin on a linker: ado-ado).
Sequence of LNX1_1, Q8TBB1 (Q8TBB1 261-371): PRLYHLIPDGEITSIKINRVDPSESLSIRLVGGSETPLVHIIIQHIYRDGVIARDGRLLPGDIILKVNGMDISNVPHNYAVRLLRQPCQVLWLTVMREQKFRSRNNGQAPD
Set-up: key: below the threshold = too weak to quantify, mostly under pKd 3.1 to 4
With B1 the pKd was “below the threshold”. In the case of B2, the pKd is reported as “below the threshold”.

What follows are binders tested against MAGI2_2, Q86UL8 (assay: holdup assay). Details: plain residues with an end cap or a label only (N-terminal biotin on a linker: ado-ado).
Sequence of MAGI2_2, Q86UL8 (Q86UL8 410-522): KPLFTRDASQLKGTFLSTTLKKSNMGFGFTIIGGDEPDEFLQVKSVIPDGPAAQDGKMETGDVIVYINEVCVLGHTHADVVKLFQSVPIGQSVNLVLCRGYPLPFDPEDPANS
Set-up: key: below the threshold = too weak to quantify, mostly under pKd 3.1 to 4
For B1, the pKd was “below the threshold”. In the case of B2, the pKd is reported as “below the threshold”.

What follows are binders tested against MAGI2_3, Q86UL8 (assay: holdup assay). Details: plain residues with an end cap or a label only (N-terminal biotin on a linker: ado-ado).
Sequence of MAGI2_3, Q86UL8 (Q86UL8 600-682): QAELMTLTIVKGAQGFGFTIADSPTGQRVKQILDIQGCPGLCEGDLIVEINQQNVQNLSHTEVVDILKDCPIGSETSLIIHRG
Set-up: key: below the threshold = too weak to quantify, mostly under pKd 3.1 to 4
B1 was tested, and the pKd was “below the threshold”. For B2, the pKd was “below the threshold”.

The binders below were run against MAGI2_6, Q86UL8 (assay: holdup assay). Details: plain residues with an end cap or a label only (N-terminal biotin on a linker: ado-ado).
Sequence of MAGI2_6, Q86UL8 (Q86UL8 1141-1229): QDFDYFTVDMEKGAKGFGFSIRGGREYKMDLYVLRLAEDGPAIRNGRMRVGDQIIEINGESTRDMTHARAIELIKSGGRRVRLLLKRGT
Set-up: key: below the threshold = too weak to quantify, mostly under pKd 3.1 to 4
B1 gave a pKd of 3.88. B2 gave a pKd of 3.59.

Each binder was assayed against MAST2, Q6P0Q8 (assay: holdup assay). Details: plain residues with an end cap or a label only (N-terminal biotin on a linker: ado-ado).
Sequence of MAST2, Q6P0Q8 (Q6P0Q8 1099-1202): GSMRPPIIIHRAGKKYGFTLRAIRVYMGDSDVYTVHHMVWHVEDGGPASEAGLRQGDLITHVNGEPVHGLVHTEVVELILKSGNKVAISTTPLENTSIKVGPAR
Set-up: key: below the threshold = too weak to quantify, mostly under pKd 3.1 to 4
Binder B1 has a pKd of 5.62. B2 gave a pKd of 5.62.

What follows are binders tested against T5, MPDZ_12, O75970 (assay: holdup assay). Details: plain residues with an end cap or a label only (N-terminal biotin on a linker: ado-ado).
Set-up: key: below the threshold = too weak to quantify, mostly under pKd 3.1 to 4
In the case of B1, the pKd is reported as 3.56. B2 was tested, and the pKd was “below the threshold”.

These binders were tested against NHERF2_2, Q15599 (assay: holdup assay). Details: plain residues with an end cap or a label only (N-terminal biotin on a linker: ado-ado).
Sequence of NHERF2_2, Q15599 (Q15599 142-238): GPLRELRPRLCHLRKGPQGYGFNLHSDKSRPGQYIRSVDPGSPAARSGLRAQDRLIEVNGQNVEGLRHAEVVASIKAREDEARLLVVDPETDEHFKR
Set-up: key: below the threshold = too weak to quantify, mostly under pKd 3.1 to 4
B1 was tested, and the pKd was 4.76. With B2 the pKd was 4.71.

These binders were tested against NHERF4_4, Q86UT5 (assay: holdup assay). Details: plain residues with an end cap or a label only (N-terminal biotin on a linker: ado-ado).
Sequence of NHERF4_4, Q86UT5 (Q86UT5 464-550): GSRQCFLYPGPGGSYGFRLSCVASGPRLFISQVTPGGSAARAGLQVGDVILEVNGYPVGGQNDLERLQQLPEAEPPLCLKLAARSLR
Set-up: key: below the threshold = too weak to quantify, mostly under pKd 3.1 to 4
For B1, the pKd was “below the threshold”. In the case of B2, the pKd is reported as “below the threshold”.

Each binder was assayed against T6, PCLO, Q9Y6V0 (assay: holdup assay). Details: plain residues with an end cap or a label only (N-terminal biotin on a linker: ado-ado).
Set-up: key: below the threshold = too weak to quantify, mostly under pKd 3.1 to 4
B1 was tested, and the pKd was “below the threshold”. B2 was tested, and the pKd was “below the threshold”.

Each binder was assayed against PDZRN4_1, Q6ZMN7 (assay: holdup assay). Details: plain residues with an end cap or a label only (N-terminal biotin on a linker: ado-ado).
Sequence of PDZRN4_1, Q6ZMN7 (Q6ZMN7 213-318): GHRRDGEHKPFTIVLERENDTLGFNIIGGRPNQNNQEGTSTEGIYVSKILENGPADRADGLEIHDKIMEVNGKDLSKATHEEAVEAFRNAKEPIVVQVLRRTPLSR
Set-up: key: below the threshold = too weak to quantify, mostly under pKd 3.1 to 4
B1 was tested, and the pKd was 4.83. In the case of B2, the pKd is reported as 3.64.

The binders below were run against T7, PTPN13_1, Q12923 (assay: holdup assay). Details: plain residues with an end cap or a label only (N-terminal biotin on a linker: ado-ado).
Set-up: key: below the threshold = too weak to quantify, mostly under pKd 3.1 to 4
With B1 the pKd was “below the threshold”. For B2, the pKd was “below the threshold”.

What follows are binders tested against PTPN3, P26045 (assay: holdup assay). Details: plain residues with an end cap or a label only (N-terminal biotin on a linker: ado-ado).
Sequence of PTPN3, P26045 (P26045 505-587): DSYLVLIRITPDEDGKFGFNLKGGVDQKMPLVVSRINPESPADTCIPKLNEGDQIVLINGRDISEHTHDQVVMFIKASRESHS
Set-up: key: below the threshold = too weak to quantify, mostly under pKd 3.1 to 4
B1 was tested, and the pKd was 5.21. B2 showed a pKd of 4.54.

What follows are binders tested against T8, SHANK1, Q9Y566 (assay: holdup assay). Details: plain residues with an end cap or a label only (N-terminal biotin on a linker: ado-ado).
Set-up: key: below the threshold = too weak to quantify, mostly under pKd 3.1 to 4
Binder B1 has a pKd of 4.52. B2 was tested, and the pKd was 5.61.

The binders below were run against T9, TX1BP3, O14907 (assay: holdup assay). Details: plain residues with an end cap or a label only (N-terminal biotin on a linker: ado-ado).
Set-up: key: below the threshold = too weak to quantify, mostly under pKd 3.1 to 4
Work on B1 yielded a pKd of 3.53. In the case of B2, the pKd is reported as 3.69.
